Experimental data from patent US20240398864A1.

Target: mERK2 9m peptide (synthetic short-chain peptide for CD8-positive T-cell stimulation, …) (mouse)
Experiment: cell-based or functional assay

“mutated ERK2-specific T-cell receptor of DUC18 transgenic mice, on CD8-positive T cells (TCR)” showed a percentage of IFN-γ-producing cells in CD90.1-positive CD8-positive infused T cells of the draining lymph node after stimulation with mERK2 9m peptide (intracellular cytokine staining) of 80%.
